Target: the molecule itself
Assay: immunoblot of cell lysates after SDS-PAGE (dimer band); INS-1 832/13 cells infected with Ad-SENP1, incubated in KRBH buffer with or without H2O2 (legend: 200 µM; methods: 1 mM) for 30 min at 37 °C; lysed in Cell-Lytic-M with DTT; 8% SDS-PAGE; blot with anti-SENP1 (C12)

B1: SENP1 (sentrin-specific SUMO protease 1) (enzyme, UniProt Q9P0U3 1-644, looked up)
chain: MDDIADRMRMDAGEVTLVNHNSVFKTHLLPQTGFPEDQLSLSDQQILSSRQGHLDRSFTCSTRSAAYNPSYYSDNPSSDSFLGSGDLRTFGQSANGQWRNSTPSSSSSLQKSRNSRSLYLETRKTSSGLSNSFAGKSNHHCHVSAYEKSFPIKPVPSPSWSGSCRRSLLSPKKTQRRHVSTAEETVQEEEREIYRQLLQMVTGKQFTIAKPTTHFPLHLSRCLSSSKNTLKDSLFKNGNSCASQIIGSDTSSSGSASILTNQEQLSHSVYSLSSYTPDVAFGSKDSGTLHHPHHHHSVPHQPDNLAASNTQSEGSDSVILLKVKDSQTPTPSSTFFQAELWIKELTSVYDSRARERLRQIEEQKALALQLQNQRLQEREHSVHDSVELHLRVPLEKEIPVTVVQETQKKGHKLTDSEDEFPEITEEMEKEIKNVFRNGNQDEVLSEAFRLTITRKDIQTLNHLNWLNDEIINFYMNMLMERSKEKGLPSVHAFNTFFFTKLKTAGYQAVKRWTKKVDVFSVDILLVPIHLGVHWCLAVVDFRKKNITYYDSMGGINNEACRILLQYLKQESIDKKRKEFDTNGWQLFSKKSQEIPQQMNGSDCGMFACKYADCITKDRPINFTQQHMPYFRKRMVWEILHRKLL
notes: The adenovirus co-expresses GFP to identify infected cells; also called Ad-SENP1
stoichiometry N: 2
